# Reference: patent US20110223168A1 (published 2011)
# Target: T1, human TNFα (human, UniProt P01375 77-233)
# Assay: cell-based or functional assay
# T1 sequence (P01375 77-233 limits assumed): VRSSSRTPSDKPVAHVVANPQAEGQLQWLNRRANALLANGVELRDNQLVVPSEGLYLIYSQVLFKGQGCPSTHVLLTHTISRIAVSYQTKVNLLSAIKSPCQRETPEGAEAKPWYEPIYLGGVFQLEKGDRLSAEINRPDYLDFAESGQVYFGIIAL
row,Binder,"CA (cell assay, ND50) [nM]"
1,"TAR1-5-19 3U homodimer (other, also called TAR1-5-19 homodimer with (Gly4Ser)3 linker) DIQMTQSPSSLSASVGDRVTITCRASQSIDSYLHWYQQKPGKAPKLLIYSASELQSGVPSRFSGSGSGTDFTLTISSLQPEDFATYYCQQVVWRPFTFGQGTKVEIKRGGGGSGGGGSGGGGSDIQMTQSPSSLSASVGDRVTITCRASQSIDSYLHWYQQKPGKAPKLLIYSASELQSGVPSRFSGSGSGTDFTLTISSLQPEDFATYYCQQVVWRPFTFGQGTKVEIKR",~30
2,"TAR1-5-19 5U homodimer (other, also called TAR1-5-19 homodimer with (Gly4Ser)5 linker) DIQMTQSPSSLSASVGDRVTITCRASQSIDSYLHWYQQKPGKAPKLLIYSASELQSGVPSRFSGSGSGTDFTLTISSLQPEDFATYYCQQVVWRPFTFGQGTKVEIKRGGGGSGGGGSGGGGSGGGGSGGGGSDIQMTQSPSSLSASVGDRVTITCRASQSIDSYLHWYQQKPGKAPKLLIYSASELQSGVPSRFSGSGSGTDFTLTISSLQPEDFATYYCQQVVWRPFTFGQGTKVEIKR",~3
3,"TAR1-5-19 7U homodimer (other, also called TAR1-5-19 homodimer with (Gly4Ser)7 linker) DIQMTQSPSSLSASVGDRVTITCRASQSIDSYLHWYQQKPGKAPKLLIYSASELQSGVPSRFSGSGSGTDFTLTISSLQPEDFATYYCQQVVWRPFTFGQGTKVEIKRGGGGSGGGGSGGGGSGGGGSGGGGSGGGGSGGGGSDIQMTQSPSSLSASVGDRVTITCRASQSIDSYLHWYQQKPGKAPKLLIYSASELQSGVPSRFSGSGSGTDFTLTISSLQPEDFATYYCQQVVWRPFTFGQGTKVEIKR",~15

# Target: T1, human TNFα
# Assay: TNF receptor assay: inhibition of TNF binding to TNFR1-Fc (ELISA)
row,Binder,IC50 [nM]
1,"TAR1-5-19, MSA16 cys bonded heterodimer (bispecific antibody, V domains shown, C-terminal Cys disulphide bonded to the C-terminal Cys of the MSA16 chain ; Chain 1 pos 109 Cys and chain 2 pos 109 Cys are joined by an intermolecular disulphide bond, made by chemical coupling via dithiodipyridine activation., Made by chemical coupling via a disulphide bond; separated from monomers by cation exchange; also called disulphide bonded heterodimer of TAR1-5-19 dAb and MSA16 dAb; cys bonded TAR1-5-19, MSA16 dimer) V domain 1: DIQMTQSPSSLSASVGDRVTITCRASQSIDSYLHWYQQKPGKAPKLLIYSASELQSGVPSRFSGSGSGTDFTLTISSLQPEDFATYYCQQVVWRPFTFGQGTKVEIKR V domain 2: DIQMTQSPSSLSASVGDRVTITCRASQSIIKHLKWYQQKPGKAPKLLIYGASRLQSGVPSRFSGSGSGTDFTLTISSLQPEDFATYYCQQGARWPQTFGQGTKVEIKR",~18
2,"TAR1-5-19CYS dimer (other, C-terminal Cys forms the disulphide between the two chains, Dimer via the engineered C-terminal cysteine, purified by protein L and cation exchange; also called TAR1-5-19CYS disulphide dimer) VL: DIQMTQSPSSLSASVGDRVTITCRASQSIDSYLHWYQQKPGKAPKLLIYSASELQSGVPSRFSGSGSGTDFTLTISSLQPEDFATYYCQQVVWRPFTFGQGTKVEIKRC",0.3 to 0.8
3,"TAR1-27d16 (other, dAb-linker-dAb dimer; also called TAR1-27 dimer d16) DIQMTQSPSSLSASVGDRVTITCRASQSIWTKLHWYQQKPGKAPKLLIYMASSLQSGVPSRFSGSGSGTDFTLTISSLQPEDFATYYCQQWFSNPSTFGQGTKVEIKRGGGGSGGGGSGGGGSDIQMTQSPSSLSASVGDRVTITCRASQSIGPNLEWYQQKPGKAPKLLIYAASSLQSGVPSRFSGSGSGTDFTLTISSLQPEDFATYYCQQQMGRPRTFGQGTKVEIKR",~50

# Target: T1, human TNFα
# Assay: as above
# Remark: another data set of the same source
row,Binder,IC50 [nM]
1,"TAR1-5d4 (other, dAb-linker-dAb dimer; also called TAR1-5 dimer 4) DIQMTQSPSSLSASVGDRVTITCRASQSIFMNLLWYQQKPGKAPKLLIYNASVLQSGVPSRFSGSGSGTDFTLTISSLQPEDFATYYCQQVVWRPFTFGQGTKVEIKRGGGGSGGGGSGGGGSGGGGSGGGGSDIQMTQSPSSLSASVGDRVTITCRASQSVKEFLWWYQQKPGKAPKLLIYMASNLQSGVPSRFSGSGSGTDFTLTISSLQPEDFATYYCQQKFKLPRTFGQGTKVEIKR",~3
2,"TAR1-5d1 (other, dAb-linker-dAb dimer; also called TAR1-5 dimer 1) DIQMTQSPSSLSASVGDRVTITCRASQSIFMNLLWYQQKPGKAPKLLIYNASVLQSGVPSRFSGSGSGTDFTLTISSLQPEDFATYYCQQVVWRPFTFGQGTKVEIKRGGGGSGGGGSGGGGSDIQMTQSPSSLSASVGDRVTITCRASQSIYDALEWYQQKPGKAPKLLIYTASRLQSGVPSRFSGSGSGTDFTLTISSLQPEDFATYYCQQVMQRPVTFGQGTKVEIKR",~30
3,"TAR1-5d5 (other, dAb-linker-dAb dimer; also called TAR1-5 dimer 5) DIQMTQSPSSLSASVGDRVTITCRASQSIFMNLLWYQQKPGKAPKLLIYNASVLQSGVPSRFSGSGSGTDFTLTISSLQPEDFATYYCQQVVWRPFTFGQGTKVEIKRGGGGSGGGGSGGGGSGGGGSGGGGSDIQMTQSPSSLSASVGDRVTITCRASQSIYDALEWYQQKPGKAPKLLIYTASRLQSGVPSRFSGSGSGTDFTLTISSLQPEDFATYYCQQVMQRPVTFGQGTKVEIKR",~200
4,"TAR1-5d6 (other, dAb-linker-dAb dimer; also called TAR1-5 dimer 6) DIQMTQSPSSLSASVGDRVTITCRASQSIFMNLLWYQQKPGKAPKLLIYNASVLQSGVPSRFSGSGSGTDFTLTISSLQPEDFATYYCQQVVWRPFTFGQGTKVEIKRGGGGSGGGGSGGGGSGGGGSGGGGSGGGGSGGGGSDIQMTQSPSSLSASVGDRVTITCRASQSIYDALEWYQQKPGKAPKLLIYTASRLQSGVPSRFSGSGSGTDFTLTISSLQPEDFATYYCQQVMQRPVTFGQGTKVEIKR",~100

# Target: T1, human TNFα
# Assay: as above
# Remark: another data set of the same source
row,Binder,IC50 [nM]
1,"TAR1-5-19 d1 (other, TAR1-5-19 substituted for TAR1-5 in lead clone d1) DIQMTQSPSSLSASVGDRVTITCRASQSIDSYLHWYQQKPGKAPKLLIYSASELQSGVPSRFSGSGSGTDFTLTISSLQPEDFATYYCQQVVWRPFTFGQGTKVEIKRGGGGSGGGGSGGGGSDIQMTQSPSSLSASVGDRVTITCRASQSIYDALEWYQQKPGKAPKLLIYTASRLQSGVPSRFSGSGSGTDFTLTISSLQPEDFATYYCQQVMQRPVTFGQGTKVEIKR",~15
2,TAR1-5-19d5 (other) DIQMTQSPSSLSASVGDRVTITCRASQSIDSYLHWYQQKPGKAPKLLIYSASELQSGVPSRFSGSGSGTDFTLTISSLQPEDFATYYCQQVVWRPFTFGQGTKVEIKRGGGGSGGGGSGGGGSGGGGSGGGGSDIQMTQSPSSLSASVGDRVTITCRASQSIYDALEWYQQKPGKAPKLLIYTASRLQSGVPSRFSGSGSGTDFTLTISSLQPEDFATYYCQQVMQRPVTFGQGTKVEIKR,~8
3,TAR1-5-19 d6 (other) DIQMTQSPSSLSASVGDRVTITCRASQSIDSYLHWYQQKPGKAPKLLIYSASELQSGVPSRFSGSGSGTDFTLTISSLQPEDFATYYCQQVVWRPFTFGQGTKVEIKRGGGGSGGGGSGGGGSGGGGSGGGGSGGGGSGGGGSDIQMTQSPSSLSASVGDRVTITCRASQSIYDALEWYQQKPGKAPKLLIYTASRLQSGVPSRFSGSGSGTDFTLTISSLQPEDFATYYCQQVMQRPVTFGQGTKVEIKR,~10

# Target: T1, human TNFα
# Assay: as above
# Remark: another data set of the same source
row,Binder,IC50 [nM]
1,"TAR1-5-19 3U homodimer (other, also called TAR1-5-19 homodimer with (Gly4Ser)3 linker) DIQMTQSPSSLSASVGDRVTITCRASQSIDSYLHWYQQKPGKAPKLLIYSASELQSGVPSRFSGSGSGTDFTLTISSLQPEDFATYYCQQVVWRPFTFGQGTKVEIKRGGGGSGGGGSGGGGSDIQMTQSPSSLSASVGDRVTITCRASQSIDSYLHWYQQKPGKAPKLLIYSASELQSGVPSRFSGSGSGTDFTLTISSLQPEDFATYYCQQVVWRPFTFGQGTKVEIKR",~20
2,"TAR1-5-19 5U homodimer (other, also called TAR1-5-19 homodimer with (Gly4Ser)5 linker) DIQMTQSPSSLSASVGDRVTITCRASQSIDSYLHWYQQKPGKAPKLLIYSASELQSGVPSRFSGSGSGTDFTLTISSLQPEDFATYYCQQVVWRPFTFGQGTKVEIKRGGGGSGGGGSGGGGSGGGGSGGGGSDIQMTQSPSSLSASVGDRVTITCRASQSIDSYLHWYQQKPGKAPKLLIYSASELQSGVPSRFSGSGSGTDFTLTISSLQPEDFATYYCQQVVWRPFTFGQGTKVEIKR",~2
3,"TAR1-5-19 7U homodimer (other, also called TAR1-5-19 homodimer with (Gly4Ser)7 linker) DIQMTQSPSSLSASVGDRVTITCRASQSIDSYLHWYQQKPGKAPKLLIYSASELQSGVPSRFSGSGSGTDFTLTISSLQPEDFATYYCQQVVWRPFTFGQGTKVEIKRGGGGSGGGGSGGGGSGGGGSGGGGSGGGGSGGGGSDIQMTQSPSSLSASVGDRVTITCRASQSIDSYLHWYQQKPGKAPKLLIYSASELQSGVPSRFSGSGSGTDFTLTISSLQPEDFATYYCQQVVWRPFTFGQGTKVEIKR",~10
4,"TAR1-5-19 cys hinge dimer (other, hinge cysteines form the cystine bond(s) between the two chains, Dimerises in the periplasm; FPLC purified dimer fraction tested; also called cysteine hinge linker format) DIQMTQSPSSLSASVGDRVTITCRASQSIDSYLHWYQQKPGKAPKLLIYSASELQSGVPSRFSGSGSGTDFTLTISSLQPEDFATYYCQQVVWRPFTFGQGTKVEIKREPKSGDKTHTCPPCP",~2

# Target: T1, human TNFα
# Assay: as above
# Remark: another data set of the same source
row,Binder,IC50 [nM]
1,"TAR1-5CH/dAb1 CK Fab (Fab, V domains shown, not shown: large carriers) V domain 1: DIQMTQSPSSLSASVGDRVTITCRASQSIFMNLLWYQQKPGKAPKLLIYNASVLQSGVPSRFSGSGSGTDFTLTISSLQPEDFATYYCQQVVWRPFTFGQGTKVEIKR V domain 2: DIQMTQSPSSLSASVGDRVTITCRASQSIYDALEWYQQKPGKAPKLLIYTASRLQSGVPSRFSGSGSGTDFTLTISSLQPEDFATYYCQQVMQRPVTFGQGTKVEIKR",~90
2,"dAb3CH/TAR1-5CK Fab (Fab, V domains shown, not shown: large carriers, also called TAR1-5CK d3CH) V domain 1: DIQMTQSPSSLSASVGDRVTITCRASQSVKEFLWWYQQKPGKAPKLLIYMASNLQSGVPSRFSGSGSGTDFTLTISSLQPEDFATYYCQQKFKLPRTFGQGTKVEIKR V domain 2: DIQMTQSPSSLSASVGDRVTITCRASQSIFMNLLWYQQKPGKAPKLLIYNASVLQSGVPSRFSGSGSGTDFTLTISSLQPEDFATYYCQQVVWRPFTFGQGTKVEIKR",~100
3,"TAR1-5-19CH/dAb3CK Fab (Fab, V domains shown, not shown: large carriers, also called TAR1-5-19CH d3CK) V domain 1: DIQMTQSPSSLSASVGDRVTITCRASQSIDSYLHWYQQKPGKAPKLLIYSASELQSGVPSRFSGSGSGTDFTLTISSLQPEDFATYYCQQVVWRPFTFGQGTKVEIKR V domain 2: DIQMTQSPSSLSASVGDRVTITCRASQSVKEFLWWYQQKPGKAPKLLIYMASNLQSGVPSRFSGSGSGTDFTLTISSLQPEDFATYYCQQKFKLPRTFGQGTKVEIKR",~3
4,"TAR1-5-19CH/dAb1 CK Fab (Fab, V domains shown, not shown: large carriers, also called TAR1-5-19CH d1CK) V domain 1: DIQMTQSPSSLSASVGDRVTITCRASQSIDSYLHWYQQKPGKAPKLLIYSASELQSGVPSRFSGSGSGTDFTLTISSLQPEDFATYYCQQVVWRPFTFGQGTKVEIKR V domain 2: DIQMTQSPSSLSASVGDRVTITCRASQSIYDALEWYQQKPGKAPKLLIYTASRLQSGVPSRFSGSGSGTDFTLTISSLQPEDFATYYCQQVMQRPVTFGQGTKVEIKR",~6
5,"dAb1 CH/TAR1-5-19CK Fab (Fab, V domains shown, not shown: large carriers, also called TAR1-5-19CK d1CH) V domain 1: DIQMTQSPSSLSASVGDRVTITCRASQSIYDALEWYQQKPGKAPKLLIYTASRLQSGVPSRFSGSGSGTDFTLTISSLQPEDFATYYCQQVMQRPVTFGQGTKVEIKR V domain 2: DIQMTQSPSSLSASVGDRVTITCRASQSIDSYLHWYQQKPGKAPKLLIYSASELQSGVPSRFSGSGSGTDFTLTISSLQPEDFATYYCQQVVWRPFTFGQGTKVEIKR",~6
